Source: patent US20170128546A1

Legend:
[1] = target: lysozyme variant 2-3-7 (human)
[2] = target: wild type human lysozyme (human) (UniProt P61626)
[3] = target: lysozyme variant 2-3-7 (human); remark: listed apart in the source

For mucin, the IC50 - Mucin (µg/mL): concentration of polyanion that inhibits lytic activity of the enzyme on Micrococcus luteus by 50% [1] was 73 µg/mL, the IC50 - Mucin (µg/mL): concentration of polyanion that inhibits lytic activity of the enzyme on Micrococcus luteus by 50% [2] was 11 µg/mL and the fold increase in IC50 for mucin against WT-LYZ [3] was 6.91 fold.
